Molecular target: Recombinant RbAp48 (human, UniProt Q09028 1-425)
Experiment: ITC; MTA1 peptide (250 uM) titrated into RbAp48 (25 uM); 25 C; 20 mM Tris pH 7.5, 150 mM NaCl; single-site model
Conditions: both partners purified

Sequence of Recombinant RbAp48 (Q09028 whole entry): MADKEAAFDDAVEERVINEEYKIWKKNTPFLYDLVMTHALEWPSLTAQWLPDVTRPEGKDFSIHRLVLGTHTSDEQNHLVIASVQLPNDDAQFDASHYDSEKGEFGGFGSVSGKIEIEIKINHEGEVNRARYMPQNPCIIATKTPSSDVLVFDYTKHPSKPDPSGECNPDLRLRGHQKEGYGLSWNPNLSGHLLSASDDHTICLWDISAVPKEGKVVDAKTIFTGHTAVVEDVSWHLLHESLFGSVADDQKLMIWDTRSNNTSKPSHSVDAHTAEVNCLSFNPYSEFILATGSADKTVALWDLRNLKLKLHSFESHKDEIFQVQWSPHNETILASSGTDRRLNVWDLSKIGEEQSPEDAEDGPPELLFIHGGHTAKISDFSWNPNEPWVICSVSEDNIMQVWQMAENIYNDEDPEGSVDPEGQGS

stoichiometry N | Kd | Binder
1 |  | Ac-DVFYMATEETRKIRKLLSSSETKRAARRPYK-NH2 (peptide, UniProt Q13330 656-686, looked up) [MTA1-(656-686) peptide]
1 |  | Ac-KLLSSSETKRAARRPYKPIALRQSQALPPRPPPPAPVNDEPI-NH2 (peptide, UniProt Q13330 670-711, looked up) [MTA1-(670-711) peptide]
1 | 50 nM | Ac-KLLSSSETKRAARRPYKPIALRQSQA-NH2 (peptide, UniProt Q13330 670-695, looked up) [MTA1-(670-695) peptide]

From paper PMC4139204 (The Journal of Biological Chemistry, 2014)
